For data set [1], the target named is T1, PDGF (platelet derived growth factor) (Homo sapiens, UniProt P01127 P01127:82-190). Kind of data set: competition; ligand beacon (SEQ ID NO:2) fluorescence decreases with PDGF; 100 nM aptamer, PBSM (1 mM MgCl2), 4 uM tRNA, 30 C; also in human plasma at 37 C. As to conditions: chain copies: 2. On the procedure: The PDGF ligand beacon was used in an assay in which 100 nM PDGF nucleic acid ligand above was mixed with an increasing concentration of PDGF for 10 minutes at 30° C. […] in PBSM buffer containing 4 µM tRNA. Then, 100 nM PDGF ligand beacon was added and the mixture was incubated for 10 minutes at 30° C. A measurement of fluorescein emission at 530 nm was made for each concentration of PDGF using 488 nm monochromatic laser light for excitation in a 96 well format Vistra Fluorimager SI. […] This is the expected result, because as the concentration of PDGF increases, the concentration of PDGF nucleic acid ligand that is not bound to PDGF decreases. Thus, there is a smaller pool of PDGF nucleic acid ligand for the PDGF ligand beacon to hybridize to.
T1 sequence (P01127 82-190, one chain of several): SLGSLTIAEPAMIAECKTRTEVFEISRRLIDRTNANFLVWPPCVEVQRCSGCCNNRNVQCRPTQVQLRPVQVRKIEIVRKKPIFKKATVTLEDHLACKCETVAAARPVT

The target of data set [2] is T1, PDGF (platelet derived growth factor). Kind of data set: competition; no change in beacon fluorescence; 100 nM aptamer, PBSM, 4 uM tRNA, 37 C. Particulars: chain copies: 2. On the procedure: Specificity of Nucleic Acid Ligand Interaction with Target in the Presence of Ligand Beacon In the previous examples, a concentration-dependent signal reduction was observed when the target was added. This should not be observed when the wrong target protein is added. This point is illustrated in FIG. 7, where TAQ-nucleic acid ligand (100 nM) was mixed with increasing concentrations of PDGF in PBSM buffer containing 4 μM tRNA at 37° C. for 10 min. Then 110 nM TAQ-ligand beacon was added, incubated for an additional 10 min at the same temperature and fluorescence was measured.

Data on 2 molecules can be found in patent publication US5989823, “Homogeneous detection of a target through nucleic acid ligand-ligand beacon interaction” (NeXstar Pharmaceuticals, Inc.).

B1: PDGF nucleic acid ligand (ssDNA)
DNA: TGGGAGGGCGCGTTCTTCGTGGTTACTTTTAGTCCCGT
Regarding B1, the binding result in data set [1] is “binds”.

B2: TAQ nucleic acid ligand (ssDNA)
DNA: TGGCGGAGCGATCATCTCAGAGCATTCTTAGCGTTTTGTTCTTGTGTATGA
Take B2: in data set [2], the binding result was “no binding”.
